Test results published in patent publication US7662583B2, “Bioreactor containing cells expressing glycosyltransferase nucleic acids isolatable from Arabidopsis” (The University of York, priority 2003, dated 2010).

Test: UGT enzyme reaction with quercetin (recombinant UGTs, HPLC)
Format: biochemical, Arabidopsis
Settings: 0.5 mM quercetin, 5 mM UDP-glucose, 30° C.; for Specific activity (nkat/mg protein) 3-O-glc: quercetin glucosylated at 3-OH; for Specific activity (nkat/mg protein) 3′-O-glc: quercetin glucosylated at 3′-OH; for Specific activity (nkat/mg protein) 4′-O-glc: quercetin glucosylated at 4′-OH; for Specific activity (nkat/mg protein) 7-O-glc: quercetin glucosylated at 7-OH
Experimental: The assay mix (200 μl) contained 2 μg of recombinant protein, 100 mM Tris-HCl, pH 7.0, 5 mM UDP-glucose 1.4 mM 2-mercaptoethanol, and 0.5 mM of quercetin. The reaction was carried out at 30° C. for 1 h, and was quick-frozen and stored at −20° C. prior to the reverse-phase HPLC analysis
Reverse-phase HPLC (SpectraSYSTEM HPLC systems and UV6000LP Photodiode Array Detector, ThermoQuest) analysis was carried using a Columbus 5μ C18 column (250×4.60 mm, PHENOMENEX). Quercetin glucosides were separated from the aglycone by a linear gradient of 10-75% acetonitrile in H2O (all solution contained 0.1% trifluoroacetic acid) at 1 ml/mm over 20 mm and monitored at 370 nm. Cytokinin glucosides were separated from their aglycone by a liner gradient of 10-100% methanol in H2O (for N6-isopentenyladenine (iP), N6-benzyladenine and kinetin) or 10-60% methanol in H2O (for trans-zeatin and dihydrozeatin) at 1 ml/min over 20 mm. All solution contained 0.25% acetic acid and 0.04% triethylamine, trifluoroacetic acid. The separation was monitored at 206 nm and 252 nm. The identity of the products was confirmed by comparison with authentic gluco sides.
The activity of Arabidopsis recombinant UGTs towards quercetin was determined using the platform developed previously^15.

Molecule | Specific activity (nkat/mg protein) 3-O-glc | Specific activity (nkat/mg protein) 3′-O-glc | Specific activity (nkat/mg protein) 4′-O-glc | Specific activity (nkat/mg protein) 7-O-glc
UGT76D1: Arabidopsis recombinant glycosyltransferase, FIG. 7 (protein, listed as Arabidopsis thaliana) MAEIRQRRVLMVPAPFQGHLPSMMNLASYLSSQGFSITIVRNEFNFKDISHNFPGIKFFTIKDGLSESDVKSLGLLEFVLELNSVCEPLLKEFLTNHDDVVDFIIYDEFVYFPRRVAEDMNLPKMVFSPSSAATSISRCVLMENQSNGLLPPQDARSQLEETVPEFHPFRFKDLPFTAYGSMERLMILYENVSNRASSSGIIHNSSDCLENSFITTAQEKWGVPVYPVGPLHMTNSAMSCPSLFEEERNCLEWLEKQETSSVIYISMGSLAMTQDIEAVEMAMGFVQSNQPFLWVIRPGSINGQESLDFLPEQFNQTVTDGRGFVVKWAPQKEVLRHRAVGGFWNHGGWNSCLESISSGVPMICRPYSGDQRVNTRLMSHVWQTAYEIEGELERGAVEMAVRRLIVDQEGQEMRMRATILKEEVEASVTTEGSSHNSLNNLVHAIMMQIDEQ | — (Activity lower than 0.02 nkat/mg protein has been considered as trace activity and is not shown in the Table.) | — (Activity lower than 0.02 nkat/mg protein has been considered as trace activity and is not shown in the Table.) | — (Activity lower than 0.02 nkat/mg protein has been considered as trace activity and is not shown in the Table.) | 0.24 nkat/mg protein
UGT73B1: Arabidopsis recombinant glycosyltransferase (protein, UniProt Q8VZE9 1-488, looked up) UDP-glycosyltransferase 73B1: MGTPVEVSKLHFLLFPFMAHGHMIPTLDMAKLFATKGAKSTILTTPLNAKLFFEKPIKSFNQDNPGLEDITIQILNFPCTELGLPDGCENTDFIFSTPDLNVGDLSQKFLLAMKYFEEPLEELLVTMRPDCLVGNMFFPWSTKVAEKFGVPRLVFHGTGYFSLCASHCIRLPKNVATSSEPFVIPDLPGDILITEEQVMETEEESVMGRFMKAIRDSERDSFGVLVNSFYELEQAYSDYFKSFVAKRAWHIGPLSLGNRKFEEKAERGKKASIDEHECLKWLDSKKCDSVIYMAFGTMSSFKNEQLIEIAAGLDMSGHDFVWVVNRKGSQVEKEDWLPEGFEEKTKGKGLIIRGWAPQVLILEHKAIGGFLTHCGWNSLLEGVAAGLPMVTWPVGAEQFYNEKLVTQVLKTGVSVGVKKMMQVVGDFISREKVEGAVREVMVGEERRKRAKELAEMAKNAVKEGGSSDLEVDRLMEELTLVKLQKEKV | 0.32 nkat/mg protein | — (Activity lower than 0.02 nkat/mg protein has been considered as trace activity and is not shown in the Table.) | — (Activity lower than 0.02 nkat/mg protein has been considered as trace activity and is not shown in the Table.) | 0.14 nkat/mg protein
UGT71C3: Arabidopsis recombinant glycosyltransferase, FIG. 2 (protein, listed as Arabidopsis thaliana) MKAEAEIIFVTYPSPGHLLVSIEFAKSLIKRDDRIHTITILYWALPLAPQAHLFAKSLVASQPRIRLLALPDVQNPPPLELFFKAPEAYILESTKKTVPLVRDALSTLVSSRKESGSVRVVGLVIDFFCVPMIEVANELNLPSYIFLTCNAGFLSMMKYLPERHRITTSELDLSSGNVEHPIPGYVCSVPTKVLPPGLFVRESYEAWVEIAEKFPGAKGILVNSVTCLEQNAFDYFARLDENYPPVYPVGPVLSLKDRPSPNLDASDRDRIMRWLEDQPESSIVYICFGSLGIIGKLQIEEIAEALELTGHRFLWSIRTNPTEKASPYDLLPEGFLDRTASKGLVCDWAPQVEVLAHKALGGFVSHCGWNSVLESLWFGVPIATWPMYAEQQLNAFSMVKELGLAVELRLDYVSAYGEIVKAEEIAGAIRSLMDGEDTPRKRVKEMAEAARNALMDGGSSFVAVKRFLDELIGGDV | 0.11 nkat/mg protein | — (Activity lower than 0.02 nkat/mg protein has been considered as trace activity and is not shown in the Table.) | — (Activity lower than 0.02 nkat/mg protein has been considered as trace activity and is not shown in the Table.) | — (Activity lower than 0.02 nkat/mg protein has been considered as trace activity and is not shown in the Table.)
UGT76E11: Arabidopsis recombinant glycosyltransferase (protein, UniProt Q9SNB1 1-451, looked up) UDP-glycosyltransferase 76E11: MEEKPAGRRVVLVAVPAQGHISPIMQLAKTLHLKGFSITIAQTKFNYFSPSDDFTDFQFVTIPESLPESDFEDLGPIEFLHKLNKECQVSFKDCLGQLLLQQGNEIACVVYDEFMYFAEAAAKEFKLPNVIFSTTSATAFVCRSAFDKLYANSILTPLKEPKGQQNELVPEFHPLRCKDFPVSHWASLESMMELYRNTVDKRTASSVIINTASCLESSSLSRLQQQLQIPVYPIGPLHLVASASTSLLEENKSCIEWLNKQKKNSVIFVSLGSLALMEINEVIETALGLDSSKQQFLWVIRPGSVRGSEWIENLPKEFSKIISGRGYIVKWAPQKEVLSHPAVGGFWSHCGWNSTLESIGEGVPMICKPFSSDQMVNARYLECVWKIGIQVEGDLDRGAVERAVRRLMVEEEGEGMRKRAISLKEQLRASVISGGSSHNSLEEFVHYMRTL | 0.08 nkat/mg protein | — (Activity lower than 0.02 nkat/mg protein has been considered as trace activity and is not shown in the Table.) | — (Activity lower than 0.02 nkat/mg protein has been considered as trace activity and is not shown in the Table.) | 0.12 nkat/mg protein
UGT71C4: Arabidopsis recombinant glycosyltransferase, FIG. 3 (protein, listed as Arabidopsis thaliana) MVKETELIFIPVPSTGHILVHIEFAKRLINLDHRIHTITILNLSSPSSPHASVFARSLIASQPKIRLHDLPPIQDPPPFDLYQRAPEAYIVKLIKKNTPLIKDAVSSIVASRRGGSDSVQVAGLVLDLFCNSLVKDVGNELNLPSYIYLTCNARYLGMMKYIPDRHRKIASEFDLSSGDEELPVPGFINAIPTKFMPPGLFNKEAYEAYVELAPRFADAKGILVNSFTELEPHPFDYFSHLEKFPPVYPVGPILSLKDRASPNEEAVDRDQIVGWLDDQPESSVVFLCFGSRGSVDEPQVKEIARALELVGCRFLWSIRTSGDVETNPNDVLPEGFMGRVAGRGLVCGWAPQVEVLAHKAIGGFVSHCGWNSTLESLWFGVPVATWPMYAEQQLNAFTLVKELGLAVDLRMDYVSSRGGLVTCDEIARAVRSLMDGGDEKRKKVKEMADAARKALMDGGSSSLATARFIAELFEDGSSC | 1.33 nkat/mg protein | — (Activity lower than 0.02 nkat/mg protein has been considered as trace activity and is not shown in the Table.) | — (Activity lower than 0.02 nkat/mg protein has been considered as trace activity and is not shown in the Table.) | 0.63 nkat/mg protein
UGT73B4: Arabidopsis recombinant glycosyltransferase (protein, UniProt Q7Y232 1-484, looked up) UDP-glycosyltransferase 73B4: MNREQIHILFFPFMAHGHMIPLLDMAKLFARRGAKSTLLTTPINAKILEKPIEAFKVQNPDLEIGIKILNFPCVELGLPEGCENRDFINSYQKSDSFDLFLKFLFSTKYMKQQLESFIETTKPSALVADMFFPWATESAEKIGVPRLVFHGTSSFALCCSYNMRIHKPHKKVASSSTPFVIPGLPGDIVITEDQANVTNEETPFGKFWKEVRESETSSFGVLVNSFYELESSYADFYRSFVAKKAWHIGPLSLSNRGIAEKAGRGKKANIDEQECLKWLDSKTPGSVVYLSFGSGTGLPNEQLLEIAFGLEGSGQNFIWVVSKNENQVGTGENEDWLPKGFEERNKGKGLIIRGWAPQVLILDHKAIGGFVTHCGWNSTLEGIAAGLPMVTWPMGAEQFYNEKLLTKVLRIGVNVGATELVKKGKLISRAQVEKAVREVIGGEKAEERRLRAKELGEMAKAAVEEGGSSYNDVNKFMEELNGRK | 12.14 nkat/mg protein | — (Activity lower than 0.02 nkat/mg protein has been considered as trace activity and is not shown in the Table.) | — (Activity lower than 0.02 nkat/mg protein has been considered as trace activity and is not shown in the Table.) | 0.18 nkat/mg protein
UGT76E2: Arabidopsis recombinant glycosyltransferase, FIG. 8 (protein, listed as Arabidopsis thaliana) MEEKQVKETRIVLVPVPAQGHVTPMMQLGKALHSKGFSITVVLTQSNRVSSSKDFSDFHFLTIPGSLTESDLQNLGPQKFVLKLNQICEASFKQCIGQLLHEQCNNDIACVVYDEYMYFSHAAVKEFQLPSVVFSTTSATAFVCRSVLSRVNAESFLIDMKDPETQDKVFPGLHPLRYKDLPTSVFGPIESTLKVYSETVNTRTASAVIINSASCLESSSLARLQQQLQVPVYPIGPLHITASAPSSLLEEDRSCVEWLNKQKSNSVIYISLGSLALMDTKDMLEMAWGLSNSNQPFLWVVRPGSIPGSEWTESLPEEFNRLVSERGYIVKWAPQMEVLRHPAVGGFWSHCGWNSTVESIGEGVPMICRPFTGDQKVNARYLERVWRIGVQLEGDLDKETVERAVEWLLVDEEGAEMRKRAIDLKEKIETSVRSGGSSCSSLDDFVNSM | 0.17 nkat/mg protein | — (Activity lower than 0.02 nkat/mg protein has been considered as trace activity and is not shown in the Table.) | — (Activity lower than 0.02 nkat/mg protein has been considered as trace activity and is not shown in the Table.) | 0.21 nkat/mg protein
